Measured values: PMC6918743, “Mammalian TRP ion channels are insensitive to membrane stretch” (Journal of Cell Science, 2019)

Target: the molecule itself
Experiment: SEC; Superose 6 10/300 GL column; 150 mM NaCl, 20 mM HEPES, 2 mM TCEP (pH 7.4); DDM-mTRPC6 protein complex; peak assigned to the tetramer

B1: mouse TRPC6, full-length (WT) protein (natural protein, UniProt Q61143 1-930, looked up)
chain: MSQSPRFVTRRGGSLKAAPGAGTRRNESQDYLLMDELGDDGYPQLPLPPYGYYPSFRGNENRLTHRRQTILREKGRRLANRGPAYMFNDHSTSLSIEEERFLDAAEYGNIPVVRKMLEECHSLNVNCVDYMGQNALQLAVANEHLEITELLLKKENLSRVGDALLLAISKGYVRIVEAILNHPAFAEGKRLATSPSQSELQQDDFYAYDEDGTRFSHDVTPIILAAHCQEYEIVHTLLRKGARIERPHDYFCKCTECSQKQKHDSFSHSRSRINAYKGLASPAYLSLSSEDPVMTALELSNELAVLANIEKEFKNDYRKLSMQCKDFVVGLLDLCRNTEEVEAILNGDAETRQPGDFGRPNLSRLKLAIKYEVKKFVAHPNCQQQLLSIWYENLSGLRQQTMAVKFLVVLAVAIGLPFLALIYWCAPCSKMGKILRGPFMKFVAHAASFTIFLGLLVMNAADRFEGTKLLPNETSTDNARQLFRMKTSCFSWMEMLIISWVIGMIWAECKEIWTQGPKEYLFELWNMLDFGMLAIFAASFIARFMAFWHASKAQSIIDANDTLKDLTKVTLGDNVKYYNLARIKWDPTDPQIISEGLYAIAVVLSFSRIAYILPANESFGPLQISLGRTVKDIFKFMVIFIMVFVAFMIGMFNLYSYYIGAKQNEAFTTVEESFKTLFWAIFGLSEVKSVVINYNHKFIENIGYVLYGVYNVTMVIVLLNMLIAMINSSFQEIEDDADVEWKFARAKLWFSYFEEGRTLPVPFNLVPSPKSLLYLLLKFKKWMCELIQGQKQGFQEDAEMNKRNEEKKFGISGSHEDLSKFSLDKNQLAHNKQSSTRSSEDYHLNSFSNPPRQYQKIMKRLIKRYVLQAQIDKESDEVNEGELKEIKQDISSLRYELLEEKSQNTEDLAELIRKLGERLSLEPKLEESRR
notes: TRPC6, Mus musculus, full-length (WT) protein; Tags removed with ProTEV Plus protease; solubilised in DDM; also called mTRPC6; WT TRPC6; source: Sf9 (baculovirus, Bac-to-Bac), purified (amylose resin, Superose 6); not shown: His8, N-terminal, cleaved; MBP, N-terminal, cleaved
**Q.** With B1 as the protein, how does the “stoichiometry N” value read?
**A.** The value was 4.

B2: Δ94 mTRPC6 (94 aa N-terminally truncated mouse TRPC6) (domain or fragment, UniProt Q61143 95-930, looked up)
chain: SIEEERFLDAAEYGNIPVVRKMLEECHSLNVNCVDYMGQNALQLAVANEHLEITELLLKKENLSRVGDALLLAISKGYVRIVEAILNHPAFAEGKRLATSPSQSELQQDDFYAYDEDGTRFSHDVTPIILAAHCQEYEIVHTLLRKGARIERPHDYFCKCTECSQKQKHDSFSHSRSRINAYKGLASPAYLSLSSEDPVMTALELSNELAVLANIEKEFKNDYRKLSMQCKDFVVGLLDLCRNTEEVEAILNGDAETRQPGDFGRPNLSRLKLAIKYEVKKFVAHPNCQQQLLSIWYENLSGLRQQTMAVKFLVVLAVAIGLPFLALIYWCAPCSKMGKILRGPFMKFVAHAASFTIFLGLLVMNAADRFEGTKLLPNETSTDNARQLFRMKTSCFSWMEMLIISWVIGMIWAECKEIWTQGPKEYLFELWNMLDFGMLAIFAASFIARFMAFWHASKAQSIIDANDTLKDLTKVTLGDNVKYYNLARIKWDPTDPQIISEGLYAIAVVLSFSRIAYILPANESFGPLQISLGRTVKDIFKFMVIFIMVFVAFMIGMFNLYSYYIGAKQNEAFTTVEESFKTLFWAIFGLSEVKSVVINYNHKFIENIGYVLYGVYNVTMVIVLLNMLIAMINSSFQEIEDDADVEWKFARAKLWFSYFEEGRTLPVPFNLVPSPKSLLYLLLKFKKWMCELIQGQKQGFQEDAEMNKRNEEKKFGISGSHEDLSKFSLDKNQLAHNKQSSTRSSEDYHLNSFSNPPRQYQKIMKRLIKRYVLQAQIDKESDEVNEGELKEIKQDISSLRYELLEEKSQNTEDLAELIRKLGERLSLEPKLEESRR
notes: TRPC6, Mus musculus, N-terminal truncation of 94 aa (Δ94); The limit 95 follows from the printed '94 aa truncated' N-terminal truncation; Tags removed with ProTEV Plus protease; solubilised in DDM; also called Δ94 TRPC6; N-terminal truncation (Δ94) of TRPC6; source: Sf9 (baculovirus, Bac-to-Bac), purified (amylose resin, Superose 6); not shown: His8, N-terminal, cleaved; MBP, N-terminal, cleaved
**Q.** For B2, which “stoichiometry N” value is on record?
**A.** Its value is 4.
